Results reported in publication PMC5976931.

Biological target: B7-1 (mouse (endogenous in mouse podocytes)) (UniProt Q00609)
UniProt Q00609, sequence (Q00609 38-306): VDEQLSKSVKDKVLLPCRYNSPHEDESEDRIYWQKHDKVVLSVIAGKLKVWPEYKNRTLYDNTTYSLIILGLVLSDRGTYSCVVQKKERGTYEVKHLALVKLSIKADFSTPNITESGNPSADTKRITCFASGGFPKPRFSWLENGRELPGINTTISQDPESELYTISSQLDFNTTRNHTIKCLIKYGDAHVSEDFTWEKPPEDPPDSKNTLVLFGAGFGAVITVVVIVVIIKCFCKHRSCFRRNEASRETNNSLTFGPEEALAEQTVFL

For “CD28 (from UniProt P31041 20-218) (receptor)”, which late apoptosis rate of LPS-treated podocytes cocultured with γδT cells (Group D), Annexin-PI, 48 hours is on record?
Its late apoptosis rate of LPS-treated podocytes cocultured with γδT cells (Group D), Annexin-PI, 48 hours is 10.2%.

What about the late apoptosis rate of LPS-treated podocytes cocultured with γδT cells and treated with the CD28/B7-1 blocker CTLA4-Ig, 100 μg/ml (Group E), Annexin-PI, 48 hours of the same substance?
The late apoptosis rate of LPS-treated podocytes cocultured with γδT cells and treated with the CD28/B7-1 blocker CTLA4-Ig, 100 μg/ml (Group E), Annexin-PI, 48 hours was 6.43%.

And the phosphor-SRC immunofluorescence intensity in LPS-treated podocytes cocultured with γδT cells (Group D)?
The phosphor-SRC immunofluorescence intensity in LPS-treated podocytes cocultured with γδT cells (Group D) was 142.

What about the phosphor-SRC immunofluorescence intensity in LPS-treated podocytes cocultured with γδT cells and treated with the CD28/B7-1 blocker CTLA4-Ig, 100 μg/ml (Group E) of the same substance?
Its phosphor-SRC immunofluorescence intensity in LPS-treated podocytes cocultured with γδT cells and treated with the CD28/B7-1 blocker CTLA4-Ig, 100 μg/ml (Group E) is 24.
